According to patent publication US20140315817A1 (ALBUMEDIX, published 2014):

Biological target: T1, hsa-1: WT - Full Length HSA (human, UniProt P02768 25-609)
T1 construct: Yeast-expressed; also called HSA-wt; wt-HSA; not shown: Factor Xa cleavage site
Test: method and origin of the value not stated

Kd: ~80 µM
B1: recombinant mouse FcRn (R&D Systems, cat#6775-FC-050) (receptor)
chain 1: SETRPPLMYHLTAVSNPSTGLPSFWATGWLGPQQYLTYNSLRQEADPCGAWMWENQVSWYWEKETTDLKSKEQLFLEALKTLEKILNGTYTLQGLLGCELASDNSSVPTAVFALNGEEFMKFNPRIGNWTGEWPETEIVANLWMKQPDAARKESEFLLNSCPERLLGHLERGRRNLEWKEPPSMRLKARPGNSGSSVLTCAAFSFYPPELKFRFLRNGLASGSGNCSTGPNGDGSFHAWSLLEVKRGDEHHYQCQVEHEGLAQPLTVDLDSSARSS
chain 2: IQKTPQIQVYSRHPPENGKPNILNCYVTQFHPPHIEIQMLKNGKKIPKVEMSDMSFSKDWSFYILAHTEFTPTETDTYACRVKHASMAEPKTVYWDRDM
notes: Bought reagent
